The target in experiment [1] is T1, Human IL13Rα2 (human, UniProt Q14627 27-343, limits assumed).
T1 construct: also called human recombinant IL13Rα2; Human IL13Ra2
T1 sequence (looked up): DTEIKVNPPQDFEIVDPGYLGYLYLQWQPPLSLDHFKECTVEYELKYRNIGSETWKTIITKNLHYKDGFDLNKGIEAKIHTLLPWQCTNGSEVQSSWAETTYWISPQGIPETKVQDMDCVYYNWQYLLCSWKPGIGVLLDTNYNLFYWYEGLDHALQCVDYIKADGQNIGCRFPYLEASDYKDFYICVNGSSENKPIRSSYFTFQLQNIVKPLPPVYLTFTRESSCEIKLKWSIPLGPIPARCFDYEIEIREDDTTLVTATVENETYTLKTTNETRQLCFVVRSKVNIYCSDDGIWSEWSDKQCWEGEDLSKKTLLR
The experiment is described as follows: SPR Biacore T200, antibody Fc-captured, IL13Rα2 as analyte. In general terms: SPR reads the build-up and loss of mass on a sensor chip optically.

The target in experiment [2] is T1, Human IL13Rα2. As to the kind of experiment: plate ELISA on human recombinant IL13Rα2, OD405, N=3. (In an ELISA, binding on a coated surface is turned into a signal by an enzyme label.)
The target of experiment [3] is T1, Human IL13Rα2. The experiment is described as follows: SPR Biacore T200, purified IgG Fc-captured, IL13Rα2 as analyte.
For experiment [4], the target named is T1, Human IL13Rα2. As to the kind of experiment: SPR Biacore 8K affinity ranking, antibody supernatant Fc-captured, 100 nM IL13Rα2 analyte.
Experiment [5] has as its target T2, human recombinant IL13Rα2hFc (cat #7147-IR-100, R&D Systems) (human, UniProt Q14627 27-343).
T2 construct: Bought; also called recombinant human IL13Ra2; not shown: human Fc ('hFc') of the bought fusion protein
T2 sequence (looked up): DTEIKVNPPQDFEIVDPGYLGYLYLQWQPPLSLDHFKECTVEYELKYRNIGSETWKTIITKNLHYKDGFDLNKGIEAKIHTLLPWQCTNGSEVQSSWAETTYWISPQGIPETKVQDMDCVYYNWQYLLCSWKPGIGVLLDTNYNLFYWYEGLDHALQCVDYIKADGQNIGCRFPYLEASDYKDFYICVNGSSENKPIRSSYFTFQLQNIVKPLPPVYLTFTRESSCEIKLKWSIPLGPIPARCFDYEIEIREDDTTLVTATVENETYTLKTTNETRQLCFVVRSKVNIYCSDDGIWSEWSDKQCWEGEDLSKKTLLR
The experiment is described as follows: plate ELISA on coated IL13Rα2hFc (1 µg/mL), detection with anti-6xHis-HRP, OD450 [continued) D].

The target in experiment [6] is T1, Human IL13Rα2. The experiment is described as follows: plate ELISA on human recombinant IL13Rα2, OD405, N=4.
The target of experiment [7] is T1, Human IL13Rα2. As to the kind of experiment: plate ELISA on human IL13Rα2, OD405, N=4 [continued) B].
For experiment [8], the target named is T1, Human IL13Rα2. As to the kind of experiment: SPR Biacore T200, antibody captured, IL13Rα2 analyte 0.9375-60 nM.
Experiment [9] deals with T1, Human IL13Rα2. As to the kind of experiment: SPR Biacore T200, 25 C, antibody captured on Protein A chip, IL13Ra2 analyte 0.625-80 nM.

B1: Chimeric antibody (VH and VL of murine Ab clone 47 in human constant regions) (antibody, V domains shown)
VH: QVQLQQPGAELVRPGASVKLSCKASGYTFSNYLMNWVKQRPEQDLDWIGRIDPYDGDIDYNQNFKDKAILTVDKSSSTAYMQLSSLTSEDSAVYYCARGYGTAYGVDYWGQGTSVTVSS
VL: not shown
notes: Full-length IgG, murine variable regions with human constant regions; also called chimeric IgG; Chimeric Ab
The Kd is the free concentration of one partner at which half of the binding sites on the other are occupied at equilibrium, for simple one-to-one binding. For orientation: koff means a measure of how fast the partners let go of each other. A high value points to fast dissociation. What is called kon is a measure of how fast the partners come together. By EC50 (read off the curve) is commonly meant the concentration giving half of the maximal effect. In [1], B1 came in with a Kd of 1.44 nM, a koff of 0.000523 s⁻¹ and a kon of 363000 M⁻¹ s⁻¹. The “EC50 (read off the curve)” value in [2] is approximately 0.03 µg/mL. In experiment [3], this molecule had a Kd of 1.45 nM, a koff of 0.000477 s⁻¹ and a kon of 330000 M⁻¹ s⁻¹. In experiment [4], the dissociation constant Kd was found to be 1.07 nM, the koff was 0.000544 s⁻¹ and the kon stood at 511000 M⁻¹ s⁻¹.

B2: Murine version of the BTE (scFv of anti-CD3 Okt3 and scFv of the murine anti-IL13Rα2 antibody) (bispecific antibody, V domains shown, not shown: small tags and cut ends)
VH: QVQLQQPGAELVRPGASVKLSCKASGYTFSNYLMNWVKQRPEQDLDWIGRIDPYDGDIDYNQNFKDKAILTVDKSSSTAYMQLSSLTSEDSAVYYCARGYGTAYGVDYWGQGTSVTVSS
VL: not shown
notes: Control BTE; also called Okt3BTE; chimeric BTE using the mouse monoclonal Ab VH and VL domains
As to B2, the “EC50 (read off the curve)” value in experiment [5] is approximately 0.5 µg/mL.

B3: Humanized antibody VH1 + VL1 (antibody, human IgG1, kappa, V domains shown)
VH: QVQLVQSGAEVKKPGSSVKVSCKASGYTFSNYLMNWVRQAPGQGLEWMGRIDPYDGDIDYNQNFKDRVTITADKSTSTAYMELSSLRSEDTAVYYCARGYGTAYGVDYWGQGTLVTVSS
VL: DIVMTQSPDSLAVSLGERATINCRASESVDNYGISFMNWYQQKPGQPPKLLIYAASRQGSGVPDRFSGSGSGTDFTLTISSLQAEDVAVYYCQQSKEVPWTFGGGTKLEIKR
notes: also called Humanized VH1-VL1; U3621EI120 VH1+VL1
Take B3: the “EC50 (read off the curve)” value in [2] is approximately 0.02 µg/mL; in experiment [6] it was approximately 0.02 µg/mL; in experiment [7], approximately 0.05 µg/mL. In addition, the figures for the Kd in experiment [3], in experiment [8] and in experiment [4] were 0.283 nM, 0.257 nM and 0.768 nM, respectively. The results for the koff in [3], in experiment [8] and in experiment [4] were 0.000191 s⁻¹, 0.00019 s⁻¹ and 0.000329 s⁻¹, respectively. The kon in experiment [3] worked out at 676000 M⁻¹ s⁻¹; in [8] it was 740000 M⁻¹ s⁻¹; in [4] it was 429000 M⁻¹ s⁻¹.

B4: Ab Vh1-VL1W100F (antibody, human IgG1, kappa, V domains shown)
VH: QVQLVQSGAEVKKPGSSVKVSCKASGYTFSNYLMNWVRQAPGQGLEWMGRIDPYDGDIDYNQNFKDRVTITADKSTSTAYMELSSLRSEDTAVYYCARGYGTAYGVDYWGQGTLVTVSS
VL: DIVMTQSPDSLAVSLGERATINCRASESVDNYGISFMNWYQQKPGQPPKLLIYAASRQGSGVPDRFSGSGSGTDFTLTISSLQAEDVAVYYCQQSKEVPFTFGGGTKLEIKR
notes: also called single mutant W100F
With B4, the “EC50 (read off the curve)” value in [6] was approximately 0.03 µg/mL. Also, in experiment [7], the “EC50 (read off the curve)” value was approximately 0.03 µg/mL. In [9], this molecule yielded a Kd of 0.326 nM, a koff of 0.000334 s⁻¹ and a kon of 1.03e+06 M⁻¹ s⁻¹.

(Values after US12703750 (NORTHWESTERN UNIVERSITY, dated 2026).)
